How the values were obtained:
GTRAP3-18 = experiment: retinoic acid regulation of GTRAP3-18 and EAAC1-mediated glutamate transport in HEK293 cells; type: cell-based
Description: Human GTRAP3-18 (JWA protein) was originally identified as a retinoic acid responsive gene. […] The loss of transport activity is not due to changes in EAAC1 protein level (FIG. 9A) or the cellular membrane localization of EAAC1 protein by retinoic acid as examined by fluorescent microscopy. To confirm that loss of transport activity was specifically due to GTRAP3-18 and not by other factors induced by retinoic acid or direct effects on EAAC1, a truncated EAAC1 cDNA, lacking the last 93 amino acids, was constructed. The truncation corresponded to the region used as bait in yeast two-hybrid screening, and was not able to interact with GTRAP3-18. Nevertheless, after transient expression in HEK293 cells, the truncated EAAC1 transported glutamate. […] Thus, the loss of transport activity by retinoic acid was the result of GTRAP3-18 induction. […] This could reflect lack of natural inhibition of the truncated protein EAAC1 by endogenous GTRAP3-18—results similar to the effects of GTRAP3-18 antisense treatment (FIG. 9E).

EAAT4 [1] = experiment: EAAT4 protein level after cycloheximide treatment, densitometry, HEK-rEAAT4 cells; type: cell-based, rat; details: 12 hrs after cycloheximide, GTRAP coexpressed; HEK-rEAAT4 alone 54±0.6%
Protocol: To examine changes in the cell surface levels of EAAT4, a cell membrane-impermeant biotinylation reagent to label cell surface proteins selectively. Biotinylation of cell surface proteins was performed as described in Duan et al. (Duan, et al., J. Neurosci. 19, 10193-10200 (1999)). SOD1 was used to control for total protein and to determine whether the biotinylation reagent labels proteins in the intracellular compartment. Densitometry was performed using the NIH Image program.
However it is also possible that there is increased expression of the cell's native gene. To address this question cells were treated 48 hrs after transfection with cycloheximide, an inhibitor of protein synthesis. […] In contrast, 81±2% and 74±1.7% of the EAAT4 protein remains after 12 hrs when GTRAP4-41 and GTRAP4-48 are coexpressed, respectively.

GST-EAAT4 = target: T1, GST-EAAT4 (Rattus norvegicus, UniProt O35921); experiment: in vitro binding to GST-EAAT4 fusion protein; details: myc-tagged protein from HEK 293T lysate; no binding to GST
T1 construct: Full-length EAAT4 was subcloned into the EcoR I site of the GST-fusion vector pGEX-6P-1 (Pharmacia); made in house; host or cells: E. coli BL21 (Novagen)
T1 sequence (O35921 1-561): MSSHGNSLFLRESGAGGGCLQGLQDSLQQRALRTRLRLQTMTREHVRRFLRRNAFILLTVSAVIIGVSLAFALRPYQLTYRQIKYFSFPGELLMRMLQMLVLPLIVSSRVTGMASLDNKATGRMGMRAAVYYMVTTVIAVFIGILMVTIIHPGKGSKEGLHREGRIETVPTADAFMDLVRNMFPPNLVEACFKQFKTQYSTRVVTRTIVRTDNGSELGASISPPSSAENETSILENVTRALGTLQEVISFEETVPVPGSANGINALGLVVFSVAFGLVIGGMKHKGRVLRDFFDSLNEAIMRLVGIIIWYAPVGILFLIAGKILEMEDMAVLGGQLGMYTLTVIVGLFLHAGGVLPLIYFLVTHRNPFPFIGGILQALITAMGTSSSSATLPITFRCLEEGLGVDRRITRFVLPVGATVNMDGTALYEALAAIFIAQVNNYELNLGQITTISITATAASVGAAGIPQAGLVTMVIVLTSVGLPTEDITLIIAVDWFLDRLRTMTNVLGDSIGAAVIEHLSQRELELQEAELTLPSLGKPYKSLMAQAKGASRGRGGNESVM
Protocol: Fusion proteins and in vitro binding. Full-length EAAT4 was subcloned into the EcoR I site of the GST-fusion vector pGEX-6P-1 (Pharmacia). Synthesis of recombinant proteins in BL21 cells (Novagen) was induced by 0.1 mM isopropyl β-D-thiogalactoside for 2 hrs at 30° C. and purified according to the protocol provided by the manufacturer (Pharmacia). HEK 293T cells were transfected with myc-tagged GTRAP4-41 or GTRAP4-48 and harvested in ice-cold immunoprecipitation (IP) buffer (phosphate buffered saline (pH 7.1), 5 mM EDTA, 1 mM sodium orthovanadate, 0.1 mM phenylmethylsulphonyl fluoride (PMSF), 0.3 μM aprotinin and 1% Triton X-100). The cellular lysate was incubated with GST or GST-EAAT4 immobilized on glutathione-Sepharose-4B, and washed to remove non-specifically bound proteins. Specifically bound proteins were eluted with 2×SDS loading buffer and analyzed by immunoblotting using an anti-c-myc antibody.
GTRAP4-41 and 4-48 Immunoprecipitation with Fusion Proteins. Full-length EAAT4 was subcloned into the EcoR I site of the GST-fusion vector pGEX-6P-1 (Pharmacia). […] Specifically bound proteins were eluted with 3×SDS loading buffer and analyzed by immunoblotting using an anti-c-myc antibody. […]

EAAT4 [2] = experiment: cerebellar glutamate uptake after intra-cisternal injection of HSV amplicon vectors; type: in vivo, rat; details: 48 hrs after intra-cisternal injection of HSV amplicon vector, vs control HSVlac
EAAT4 [3] = target: T2, EAAT4 (Rattus norvegicus, UniProt O35921); experiment: Na+-dependent L-[3H]-glutamate uptake in HEK-rEAAT4 cells transfected with GTRAPs; type: cell-based; parameters: expressed in transfected cells
T2 sequence (O35921 1-561): T1 sequence (O35921 1-561)
Protocol: To determine function relationships between GTRAPs and glutamate transporter proteins, sodium-dependent, glutamate transport activity was measured in HEK-rEAAT4 cells transfected with one or more interacting proteins.
To determine the effects of GTRAPs on glutamate transport function, Na+-dependent glutamate transport activity was measured in cells stably transfected with EAAT4, EAAC1, or another glutamate transporter protein and one or more interacter proteins. Stably transfected cells were grown in a monolayer on 6-well plates in MEM supplemented with 10% fetal bovine serum and L-glutamine. Assays were conducted when cells reached ˜80% confluency. The wells were pre-rinsed twice with 2 ml of ice-cold tissue buffer (50 mM Tris, 320 mM sucrose, pH 7.4). The cells were then incubated for 4 min at 37° C. with 1 ml of either sodium-(120 mM NaCl, 25 mM NaHCO3, 5 mM KCl, 2 mM CaCl2, 1 mM KH2PO4, 1 mM MgSO4, 10% glucose and […]) or choline-(120 mM choline Cl, 25 mM Tris-HCl pH 7.4, 5 mM KCl, 2 mM CaCl2, 1 mM KH2PO4, 1 mM MgSO4, 10% glucose and […]) containing buffer labeled with L-[^3H]Glu. Uptake was stopped by rinsing three times with 2 ml of ice-cold wash buffer (50 mM Tris pH 7.5 and 160 mM NaCl). Cells were solubilized in 1 ml of 0.1 N NaOH, and […] of lysate was analyzed for radioactivity in a scintillation counter. Na^+-dependent uptake was defined as the difference in radioactivity accumulated in Na^+-containing buffer and in choline-containing buffer. Protein content was measured and glutamate uptake calculated as nmole glutamate per mg of protein. In some cases, homogenates were examined for EAAT4, GTRAP4-41 and GTRAP 4-48 protein.
In an alternative protocol, HEK-rEAAT4 cells transfected with GTRAP4-41 and GTRAP4-48 were grown in a monolayer on 6-well plates in MEM supplemented with 10% fetal bovine serum and L-glutamine. Assays were conducted about 72 h after transfection using the method of Davis (Davis et al., J Neurosci. 18, 2475-2485 (1998)). […] Glutamate transport was measured by methods described herein.

Rho = target: T3, Rho (Homo sapiens, UniProt P61586); experiment: guanine nucleotide exchange assay (GTPγS binding to small G proteins); type: biochemical; details: GST-RhoA, GST-Cdc42 and GST-Rac, 10 min at 30° C.
T3 construct: made in house; host or cells: bacterial cells
Protocol: Guanine nucleotide exchange assay. Small G proteins GST-RhoA, GST-CDC42 and GST-Rac were expressed in bacterial cells and affinity purified to ˜80% purity using a glutathione column. Twenty pmoles of each protein were incubated with 100 pmoles GTPγS for 10 min at 30° C. with varying concentrations of full-length GTRAP4-48 or p115. The binding reactions were filtered through BA-85 nitrocellulose and the amount of GTPγS bound to small G protein was quantitated by scintillation counting of the dried filters. The amount of GTPγS that bound to GST-RhoA, GST-Cdc42 and GST-Rac in the presence of full-length GTRAP4-48 or p115 was measured.

T3 sequence (P61586 whole entry): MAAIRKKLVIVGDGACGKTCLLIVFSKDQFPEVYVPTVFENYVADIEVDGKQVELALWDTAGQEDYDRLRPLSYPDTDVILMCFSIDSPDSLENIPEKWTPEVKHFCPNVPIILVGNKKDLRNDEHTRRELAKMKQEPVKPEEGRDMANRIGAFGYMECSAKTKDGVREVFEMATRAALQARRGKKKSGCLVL

For `CC1=C(/C=C/C(C)=C/C=C/C(C)=C/C(=O)O)C(C)(C)CCC1` [Retinoic acid, retinoic acid], the non-toxic dose range (GTRAP3-18) was 1 to 10 µM.

For “GTRAP4-41: glutamate transporter 4 associated protein, 2,388 amino acids (SEQ ID NO:2), 87% identity with β-spectrin III”, the EAAT4 protein remaining (EAAT4 [1]) was 81±2%, the “binding to GST-EAAT4 fusion protein” value (GST-EAAT4) was “bind” and the cerebellar glutamate uptake (EAAT4 [2]) was “elevated”. For the same molecule, the Km (EAAT4 [3]; GTRAP co-expressed with EAAT4, EAAT4 alone 7 (GTRAP41 experiment) or 10 (GTRAP48 experiment)) was 11 µM, the “Vmax of glutamate uptake” value (EAAT4 [3]; GTRAP co-expressed with EAAT4, EAAT4 alone 222 (GTRAP41 experiment) or 208 (GTRAP48 experiment)) was 605 pmol/mg/min and the “increase in glutamate transport” value (EAAT4 [3]; HEK-rEAAT4 cells transfected with the GTRAP, vs vector alone) was “two”.

B1: p115: RhoGEF that selectively activates Rho (protein)
chain: MEDFARGAASPGPSRPGLVPVSIIGAEDEDFENELETNSEEQNSQFQSLEQVKRRPAHLMALLQHVALQFEPGPLLCCLHADMLGSLGPKEAKKAFLDFYHSFLEKTAVLRVPVPPNVAFELDRTRADLISEDVQRRFVQEVVQSQQVAVGRQLEDFRSKRLMGMTPWEQELAQLEAWVGRDRASYEARERHVAERLLMHLEEMQHTISTDEEKSAAVVNAIGLYMRHLGVRTKSGDKKSGRNFFRKKVMGNRRSDEPAKTKKGLSSILDAARWNRGEPQVPDFRHLKAEVDAEKPGATDRKGGVGMPSRDRNIGAPGQDTPGVSLHPLSLDSPDREPGADAPLELGDSSPQGPMSLESLAPPESTDEGAETESPEPGDEGEPGRSGLELEPEEPPGWRELVPPDTLHSLPKSQVKRQEVISELLVTEAAHVRMLRVLHDLFFQPMAECLFFPLEELQNIFPSLDELIEVHSLFLDRLMKRRQESGYLIEEIGDVLLARFDGAEGSWFQKISSRFCSRQSFALEQLKAKQRKDPRFCAFVQEAESRPRCRRLQLKDMIPTEMQRLTKYPLLLQSIGQNTEEPTEREKVELAAECCREILHHVNQAVRDMEDLLRLKDYQRRLDLSHLRQSSDPMLSEFKNLDITKKKLVHEGPLTWRVTKDKAVEVHVLLLDDLLLLLQRQDERLLLKSHSRTLTPTPDGKTMLRPVLRLTSAMTREVATDHKAFYVLFTWDQEAQIYELVAQTVSERKNWCALITETAGSLKVPAPASRPKPRPSPSSTREPLLSSSENGNGGRETSPADARTERILSDLLPFCRPGPEGQLAATALRKVLSLKQLLFPAEEDNGAGPPRDGDGVPGGGPLSPARTQEIQENLLSLEETMKQLEELEEEFCRLRPLLSQLGGNSVPQPGCT
In the case of B1, the “guanine nucleotide exchange activity” value (Rho) is reported as “specific guanine nucleotide exchange activity for Rho”.
